From PMC4338372 (FEBS Open Bio, 2015) come the findings set out here.

The target of assay [1] is ^15N-labeled SH3 domain of Hck (SH3Hck), GST tag cleaved (UniProt P08631 77-141, uniformly ^15N labeled). As to the kind of experiment: NMR titration.
Assay [2] concerns the target 6His-tagged ELMO1 C-terminal domain with the polyproline motif (ELMO_(532–727)) (mouse, UniProt Q8BPU7 532-727). Description: ELISA. (In general: In an ELISA, binding on a coated surface is turned into a signal by an enzyme label.)

^15N-labeled SH3 domain of Hck (SH3Hck), GST tag cleaved, sequence (P08631 77-141): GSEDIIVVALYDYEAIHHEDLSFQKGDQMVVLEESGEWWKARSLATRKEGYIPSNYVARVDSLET

What is called Kd is the free concentration of one partner at which half of the binding sites on the other are occupied at equilibrium, for simple one-to-one binding. A higher Kd goes with lower affinity. In assay [1], DLENIQIPDAPPPIPKEPSNYDFVYDCN [ELMO_(700–727) peptide (28 C-terminal amino-acids of ELMO1)] had a Kd of 1.6 ± 0.3 mM.

B1: GST-fused SH3 domain of Hck (GST-SH3Hck) (domain or fragment)
chain: not shown
The molecule B1 registered a Kd in assay [2] of roughly 10 µM.
